According to the RNAGym collection of RNA variant scans (doi:10.1073/pnas.2313332121):
Variants at the floor of the assay were thinned out.

B1: TPR 5TU (parent)
chain: GGAUCUUCUCGAUCUAACAAAAAAGACAAAUCUGCCACAAAGCUUGAGAGCAUCUUCGGAUGCAGAGGCGGCAGCCUUCGGUGGCGCGAUAGCGCCAACGUUCUCAACUAUGACACGCAAAACGCGUGCUCCGUUGAAUGGAGUUUAUCAUG

Variants of: B1
Test: polymerase ribozyme fitness, log enrichment relative to wild type (log ratio); higher = more active; in vitro selection for triplet polymerase activity
Method in brief: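 Each subunit of a heterodimeric triplet polymerase ribozyme was represented by a PCR-built, transcribed mutant library that underwent triplicate single-round in vitro selection with frozen incubation at −7 °C. Extended constructs were recovered by gel excision, streptavidin-bead capture and RT-PCR, and Illumina sequencing of input and output libraries kept genotypes with ≥10 input reads and ≥1 read per output. Fitness is the logarithm of genotype enrichment relative to wild-type enrichment, from inverse-variance-weighted replicate averages, with a logarithm base of 2.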

Row | Variant | polymerase ribozyme fitness (log ratio)
1 | GGAUCUUCUCGAUCUAACAAAAAAGACAAAUCUGCCACAAAGCUUGCGAGCAUGUUCGGAUGCAGAGGCGGCAGCCUUCGGUGGCGCGAUAGCGCCAACGUUCUCAACUAUGACACGCAAAACGCGUGCUCCGUUGAAUGGAGUUUAUCAUG [A47C C54G] | -1.14
2 | GGAUCUUCUCGAUCUAACAAAAAAGACAAAUCUGCCACAAAGCUUGCGAGCAUCUUCCGAUGCAGAGGCGGCAGCCUUCGGUGGCGCGAUAGCGCCGAGGUUCUCAACUAUGACACGCAAAACGCGUGAUCCUUUGAAUGGAGUUUAUCAUG [A47C G58C A97G C99G C129A G133U] | ≤ -4.2
3 | GGAUCUUCUCGAUCUAACAAAAAAGACAAAUCUGCCACAAAGCUUGCGAGCAUCUUCGGAUGCAGAGGCGGCAGCCUUCGGUGGCGCGAUAGCGCCAACGUUCUCAACUAUGACACGCAAAACGCGUGCUCCGUUGAAUGGAGUUUAUCAUG [A47C] | -0.224
4 | GGAUCUUCUCGAUCUAACAAAAAAGACAAAUCUGCCACAAAGCUUGCGAGCAUCUUCGGAUGCAGAGGCGGCAGCCUUCGGUGGAGCGAUAGCGCCAACGUUCUCAACUAUGACACGCAAAACGCGUGCUCCGUUGAAUGGAGUUUAUCAUG [A47C C85A] | -2.92
5 | GGAUCUUCUCGAUCUAACAAAAAAGACAAAUCUGCCACAAAGCUUGCGAGCAUCUUCUGAUGCAGAGGCGGCAGCCUUCGGUGGCGCGAUAGCGCCAAAGUUCUCAACUAUGACACGCAAAACGCGUGCUCCGUUGAAUGGAGUUUAUCAUG [A47C G58U C99A] | -2.46
6 | GGAUCUUCUCGAUCUAACAAAAAAGACAAAUCUGCCACAAAGCUUGCGAGCAUCUUCGGAUGCAGAGGCGGCAGCCUUCGGUGGCGCGAUAGCGCCAACGUUCUCAACUAUGACCCGCAAAACGCGUGCUCCGUUGAAUGGAGGUUAUCAUG [A47C A115C U144G] | -0.866
7 | GGAUCUUCUCGAUCUAACAAAAAAGACAAAUCUGCCACAAAGCUUGCGAGCAUCUUCGGAUGCAGAGGCGGCAGCCUUCGGUGGCGCGAUAGCGCCAAUGUUCUCAACUAUGACACGCAAAUCGCGUGCUCCGUUGAAUGAAGUUUAUCAUG [A47C C99U A122U G141A] | -3.39
8 | GGAUCUUCUCGAUCUAACAAAAAAGACAAAUCUGCCACAAAGCUUGCGAGCAUCUUCGGGUGCAGAGGCGGCAGCCUUCGGUGGCGCGAUAGCGCCAACGUUCUCAUCUAUGACACGCAAAACGCGUGCUCCGUUGAAUGGAGUUUAUCAUG [A47C A60G A107U] | -3.3
9 | GGAUCUUCUCGAUCUAACAAAAAAGACAAAUCUGCCACAAAGCUUGCGAGCAUCUUCGGAUGCAGAGGCGGCAGCCUUGGGUGGCGCGAUAGCGCCAACGUUCUCAACUAUGACACGCAAAACGCGUGCUCCGUUGAAUGGAGUUUAUCAUG [A47C C79G] | ≤ -4.2
10 | GGAUCUUCUCGAUCUAACAAAAAAGACAAAUCUGCCACAAAGCUUGCGAGCAUCUUCGGAUGCAGAGGCGGCAGCCUUCGGUGGUGCGAUAGCGCCAACGUUCUCAACUAUGACACUCAAAACGCGUGCUCCGUUGAAUGGAGUUUAUCAUG [A47C C85U G117U] | 0.38
11 | GGAUCUUCUCGAUCUAACAAAAAAGACAAAUCUGCCACAAAGCUUGCGAGCAUCUUCGGCUGCAGAGGCGGGAGCCGUCGGUGGCGGUAUAGCGCCAACGUUCUCAACUUUGACACGCGAAACGCGUGCUCCGUUGAAUGGAGUUUCUCAUG [A47C A60C C72G U77G C87G G88U A110U A119G A147C] | ≤ -4.2
12 | GGAUCUUCUCGAUCUAACAAAAAAGACAAAUCUGCCACAAAGCUUGCGAGCGACUUCGGAUGCAGAGGCGGCAGCCUUCGGUGGCACGAUAGCCCCAACGUUCUCAACUAUGACACGCAAAACGCGUGCUCCGUUGAAUGGAGUUUAUCAUG [A47C A52G U53A G86A G94C] | ≤ -4.2
13 | GGAUCUUCUCGAUCUAACAAAAAAGACAAAUCUGCCACAAAGCUUUAGAGCAUCUUCGGAUGCAGAGGCGGCAGCCUUCGGUGGCGCGAUAGCGCCAACGUUCUCAACUAUGACACGCAAAACGCGUGCUCCGUUGAAUGGAGCUUAUCAUG [G46U U144C] | -0.573
14 | GGAUCUUCUCGAUCUAACAAAAAAGACAAAUCUGCCACAAAGCUUGCGAGCAUCUUCGGAUGCAGAGGCGGCAGCCUUCGGUGGCGCGGUAGCGCCUACGUUCUCAACUAUGACACGCAAAACGCGUGCUGCGUUGAAUGGAGUUUAUCAUG [A47C A89G A97U C131G] | ≤ -4.2
15 | GGAUCUUCUCGAUCUAACAAAAAAGACAAAUCUGCCACAAAGCUUGCGAGCAUCUUCGGAUGCAGAGGCGGCAGCCUUUGGUAGCGUGAUAGCGCCAAAGUUUUCAACUAUGACACGCAAAACGCGUGCUCCGUUGAAUGGAGUUUAUCAUG [A47C C79U G83A C87U C99A C103U] | -4.14
16 | GGAUCUUCUCGAUCUAACAAAAAAGACAAAUCUGCCACAAAGCUUGCGAACAUCUUCGGAUGCAGAGGCGGCAGCCUUCGGUAGCGCGAUAGCGCCAACGUUCUCAACUAUGACACGCAAAACGCGUGCUCCGUUGAAUGGAGUUUAUCAUG [A47C G50A G83A] | -2.44
17 | GGAUCUUCUCGAUCUAACAAAAAAGACAAAUCUGCCACAAAGCUUGCGAGCAUCUUCGGAUGCAGAGGCGGCAGCCUUCGGUGGAGCGAUAGUGCCAACGUUCUCAACUAUGACACGCAAAACGCGUGCUCCGUUGAAUGGAGUUUAUCAUG [A47C C85A C93U] | ≤ -4.2
18 | GGAUCUUCUCGAUCUAACAAAAAAGACAAAUCUGCCACAAAGCUUGCGAGCAUCUUCGGAUGCAGAGGGGGCAGCCUUCGGUAGCGCGAUAGCGCCAACGUUCUCAACUAUGACACGCGAAACGCGUGCUCCGUUGAAUGGAGUUCAUCAUG [A47C C69G G83A A119G U146C] | -2.18
19 | GGAUCUUCUCGAUCUAACAAAAAAGACAAAUCUGCCACAAAGCUUGCGAGCAUCUUCGGAUGCAGAGGCGGCAGCCUUCGGUGGCGCGAUAGCGCUAACGUUAUCAACUAUGAGACGCAAAAUGCGUGCUCCGUUGAAUGGAGUUUAUCAUG [A47C C96U C103A C114G C123U] | ≤ -4.2
